According to patent US20250376498A1, “FUSION PROTEINS COMPRISING AN IMPROVED GLP-1 RECEPTOR AGONIST AND USES THEREOF” (Guangzhou Innogen Pharmaceutical Group Co., Ltd., priority 2022, published 2025):
“Also recorded” adds a separate entry of the source.

Columns and labels:
[1] = test system: INS-1 cells; experiment: Insulin secretion from INS-1 cells; type: cell-based
Description: Natural GLP-1 stimulates insulin secretion from beta cells in a glucose-dependent manner. […] INS-1 cells were serum-starved and glucose-starved, then treated with different amounts of purified YN-011 in the presence of 0, 5, or 20 mM glucose as indicated.

[2] = test system: db/db mice; experiment: Multiple subcutaneous injections in db/db mice (type 2 diabetes model); type: in vivo; conditions: for rate of fasting blood glucose reduction: 54 hours (day 21) after the 7th administration; for average rate of decline in random blood glucose levels: 72 hours after the 7th administration; for average rate of fasting blood glucose reduction: average over measurement time points
Description: The impact of multiple subcutaneous injections of YN-011 on reducing blood glucose levels was evaluated in db/db mice (Jackson Laboratories, 000642). The mice were kept under normal lighting conditions (12 hours light/12 hours dark) and at room temperature, with free access to food (normal rodent chow) and water. Db/db mice lack leptin receptors and spontaneously develop obesity, hyperglycemia, and pancreatic B-cell atrophy by 4 weeks of age.
Sixty affected db/db mice (33-45g) were divided into six groups of 10 mice each (5 males and 5 females) and administered 0 (PBS buffer control), 0.15, 0.3, 0.6, or 1.2 mg/kg of YN-011, or 0.3 mg/kg of Degludec via subcutaneous injection. Another group of wild-type mice (17-22g) with the same genetic background served as the normal control. The administration frequency was once every 3 days (Q3D), with a total of 9 doses administered over a period of 26 days. […] The duration of the hypoglycemic effect ranged from 34 to 72 hours within the dose range of 0.15-1.2 mg/kg.

[3] = test system: DIO mice; experiment: High-fat diet-induced obese (DIO) mice; type: in vivo
Description: The effects of multiple administrations of YN-011 on glucose tolerance, insulin sensitivity, metabolism, and weight reduction were evaluated in high-fat diet (HFD)-induced obese mice. Male C57BL/6 mice, 5 months old (obtained from commercial sources such as Shanghai Slake Experimental Animals Co., Ltd., under standard housing conditions), were fed with an HFD (60% of total calories from fat, 20% from carbohydrates) for 6 months to establish the diet-induced obesity (DIO) mouse model. The DIO mice (weighing >50 g) were then divided into two groups (5 animals per group), with the experimental group receiving subcutaneous injections of 0.3 mg/kg of YN-011 twice a week (BIW) and the control group receiving phosphate-buffered saline (PBS) injections. The treatment was administered for 4 weeks.

[4] = test system: T2DM subjects; experiment: Phase IIa clinical trial, efficacy and safety in T2DM subjects; type: in vivo, human
Description: Key inclusion criteria for the phase IIa study: • Patients with T2DM (WHO 1999) who have not taken metformin for at least 1 week and have not taken any other oral antidiabetic drugs for at least 2 weeks. • HbA1c levels at screening: 7.0%≤HbA1c≤10.0%. • Age between 18 and 65 years at screening. • BMI ≥20 kg/m^2 and ≤40 kg/m^2.
Key exclusion criteria for the phase IIa study: • Type 1 diabetes. • Fasting C-peptide <0.81 ng/mL. • Laboratory parameters meeting one of the following criteria: alanine aminotransferase (ALT) levels ≥2.5 ×ULN, and/or aspartate aminotransferase (AST) levels ≥2.5 ×ULN, fasting triglycerides >5.6 mmol/L; estimated glomerular filtration rate (eGFR) calculated by the CKD-EPI (EPI-(Scr)) equation <45 mL/min/1.73 m^2, • Known susceptibility to familial (first-degree relatives) or personal history of type 2 multiple endocrine neoplasia or medullary thyroid carcinoma. • Uncontrolled hypertension. • Known history of pancreatitis, pancreatic cancer, or serum amylase >1.2 ×ULN, or high-risk factors for pancreatitis at screening. • Patients with uncontrolled hypothyroidism. • Suspicion of active infection. • Positive hepatitis B surface antigen (HBsAg), hepatitis C antibody (HCV-Ab), human immunodeficiency virus antibody (HIV-Ab), or Treponema pallidum antibody (TPAb). • Treatment with GLP-1 receptor agonists, DPP-4 inhibitors, or insulin in the 3 months prior to randomization. • History of grade 3-4 allergy to any protein drug as per CTCAE. • Blood donation or blood loss exceeding 450 mL in the 3 months prior to screening. • Any significant endocrine, immune, coagulation, urinary reproductive tract abnormality, or hematological disease. • Clinically significant gastric emptying disorder (e.g., gastric outlet obstruction), severe chronic gastrointestinal disease (e.g., active ulcer within 6 months), long-term use of drugs directly affecting gastrointestinal motility, or previous gastrointestinal surgery. • Any other condition that the investigator or primary physician deems unsuitable for participation in the study. […]

[5] = db/db mice, after the last administration (9th dose, day 26)
[6] = 0.3 mg/kg sc BIW, 4 weeks, P<0.001

B1: YN-011: GLP-1 fusion protein of SEQ ID NO: 7: GLP-1 (A8G, G22E, R36G), linker peptide and IgG2/Fc domain (C222S, A330S, P331S) (protein)
chain: HGEGTFTSDVSSYLEEQAAKEFIAWLVKGGGSSGAPPPSGGGGSERKSCVECPPCPAPPVAGPSVFLFPPKPKDTLMISRTPEVTCVVVDVSHEDPEVQFNWYVDGVEVHNAKTKPREEQFNSTFRVVSVLTVVHQDWLNGKEYKCKVSNKGLPSSIEKTISKTKGQPREPQVYTLPPSREEMTKNQVSLTCLVKGFYPSDIAVEWESNGQPENNYKTTPPMLDSDGSFFLYSKLTVDKSRWQQGNVFSCSVMHEALHNHYTQKSLSLSPG
[1]; absence of glucose
  insulin secretion from beta cells: did not stimulate insulin secretion
[1]; presence of 5 mM or 20 mM glucose
  insulin secretion from beta cells: dose-dependently stimulated insulin secretion
[2]; db/db mice, 0.15 mg/kg Q3D sc
  rate of fasting blood glucose reduction: 46.8%
  average rate of decline in random blood glucose levels: 31.8%
  average rate of fasting blood glucose reduction: 55.0%
[2]; db/db mice, 0.3 mg/kg Q3D sc
  rate of fasting blood glucose reduction: 55.6%
  average rate of decline in random blood glucose levels: 46.2%
  average rate of fasting blood glucose reduction: 61.8%
[2]; db/db mice, 0.6 mg/kg
  serum free fatty acid levels: significantly reduced
[2]; db/db mice, 0.6 mg/kg Q3D sc
  rate of fasting blood glucose reduction: 59.5%
  average rate of decline in random blood glucose levels: 50.8%
  average rate of fasting blood glucose reduction: 63.7%
[2]; db/db mice, 1.2 mg/kg
  perirenal fat content: significantly reduced
[2]; db/db mice, 1.2 mg/kg Q3D sc
  rate of fasting blood glucose reduction: 64.7%
  average rate of decline in random blood glucose levels: 54.3%
  average rate of fasting blood glucose reduction: 66.1%
[2]; db/db mice, 1.2 mg/kg sc
  serum fructosamine levels: significant reduction
[2]; db/db mice, 0.15, 0.3, 0.6 and 1.2 mg/kg every 3 days
  time the hypoglycemic effect (fasting blood glucose) can be maintained: at least 54 hours
[2]; db/db mice, 0.15, 0.3 and 0.6 mg/kg
  scapular fat content: significantly reduced
[2]; db/db mice, 0.15-0.6 mg/kg sc
  serum fructosamine levels: decreasing trend
[2]; db/db mice, 0.3, 0.6 and 1.2 mg/kg
  subcutaneous fat content, inguinal fat content and their ratios to body weight: significantly reduced
[2]; db/db mice, 0.3, 0.6 and 1.2 mg/kg (P<0.05, P<0.01, P<0.001)
  random and fasting body weights: significant decreases
[2]; db/db mice, 3 hours after administration
  insulin secretion (serum insulin levels): significantly promoted insulin secretion
[2]; db/db mice, Q3D sc, YN-011 all dose groups (P<0.001), Degludec 0.3 mg/kg
  fasting blood glucose levels versus model control group: significant decrease; also recorded: significantly reduced fasting blood glucose levels
[2]; db/db mice, YN-011 treatment groups vs solvent control
  epididymal fat content and its ratio to body weight: significant decrease
[2]; db/db mice, after repeated administration
  time the hypoglycemic effect was sustained: 72 h
[2]; [5]
  fasting serum insulin levels: dose-dependently increased
  pancreatic-cell mass: significant increase
[2]; db/db mice, first administration, dose as low as 0.15 mg/kg
  time after administration at which therapeutic effect was observed: 3 h
[2]; db/db mice, following the first subcutaneous administration, 0.15-1.2 mg/kg
  random plasma glucose (RPG) concentration: significantly reduced
[2]; db/db mice, multiple sc injections vs solvent control
  serum triglyceride levels: significantly decreased
[2]; db/db mice, repeated administration, all dose groups and time points except 0.15 mg/kg after the 4th administration (P=0.07)
  RPG levels versus control group: significantly lower
[3]
  UcP1 expression in BAT and epididymal WAT: no effect
  Ucp1 expression in inguinal WAT: significantly upregulated
[3]; 0.3 mg/kg sc BIW, 4 weeks
  body weight: significantly reduced
  ectopic lipid accumulation and hepatic triglycerides: significantly reduced
  weight of other tissues (BAT, inguinal WAT, pancreas, calf muscle): no impact
[3]; 0.3 mg/kg sc BIW, 4 weeks, Ctrl 145.6±16.8, P<0.05
  AST levels: 72.20±19.29
[3]; 0.3 mg/kg sc BIW, 4 weeks, Ctrl 153.4±18.7, P<0.01
  serum ALT levels: 34.2±7.7
[3]; [6]
  reduction in non-esterified fatty acids (NEFA): 57%
  reduction in total cholesterol (TC): 30%
  reduction in triglycerides (TG): 68%
[3]; 0.3 mg/kg sc BIW, 4 weeks, vs PBS control
  visceral fat, particularly epididymal fat content: significant decrease
[3]; after 4 weeks of treatment, glucose fluctuation / IPGTT, P<0.01
  blood glucose: significantly reduced
[3]; after 4 weeks of treatment, insulin tolerance, P<0.01
  insulin sensitivity: improved insulin sensitivity
[3]; at room temperature
  core body temperature: higher core body temperature
[3]; during the night
  VO2, VCO2 and EE normalized to body weight: significantly increased
[3]; multiple administrations vs control
  food consumption: significant decrease
[3]; not normalized, without statistical significance
  metabolic rate (VO2 and VCO2) and energy expenditure (EE): increasing trend
[4]; 1-4 mg sc
  side effects or safety risks: No significant side effects or safety risks
[4]; multiple sc administrations, 1 mg, 3 mg or 4 mg, p<0.05
  HbA1c levels compared to placebo: persistent improvement; also recorded: significant difference compared to the placebo
[4]; multiple sc administrations, 3 mg or 4 mg, p<0.05
  fasting blood glucose compared to placebo: statistically significant improvement; also recorded: significant difference compared to the placebo
